Biological target: the molecule itself
Assay: SEC-SAXS; purified complexes loaded at 2.55 (CBKP1P2), 0.72 (CBKP1) and 3 mg/ml (CBKP2) on a Bio-SEC3 column; 20 mM Tris pH 8.5, 300 mM NaCl, 5 mM 2-mercaptoethanol, 5% glycerol

B1: CBKP1, four-subunit PaKEOPS complex (PaCgi121/PaBud32/PaKae1/PaPcc1) (complex)
chain 1: MTPKFKNFKHDNSGQVETYLFEVISKYTMLEIKTKFGKLCIAKVKLASESIERALNLCNDNCQIVSAKCHEEVIFATILAIKAFSSGRNTAKTIKGEILLRLAGVKQIKDAIKIIGARKGENLIIYFGVSDPCSSLKDFISSLGLREEPLKPCDEDEVKRGFERAAIIEAL
chain 2: MKLIKQGAEAKIYLAEFSELYFDYPIKVIVKERIKKRYRIPEIDLKLRKERTIREARILRRAKEFGVNVPYVFEVDTKNMIIVMEYIEGERLKELLEKLPMEERLKVCREVGRQIGKLHEAGIVHGDLTTSNMILREGKVYFIDFGLAEFDDTIEAQGVDLHLLKRAMESTHYKWFERGFEEVLKGYIEIRGEDKGREIREKIREIELRGRYRERSWITQ
chain 3: MLALGIEGTAHTLGIGIVSEDKVLANVFDTLTTEKGGIHPKEAAEHHARLMKPLLRKALSEAGVSLDDIDVIAFSQGPGLGPALRVVATAARALAVKYRKPIVGVNHCIAHVEITKMFGVKDPVGLYVSGGNTQVLALEGGRYRVFGETLDIGIGNAIDVFARELGLGFPGGPKVEKLAEKGEKYIELPYAVKGMDLSFSGLLTEAIRKYRSGKYRVEDLAYSFQETAFAALVEVTERAVAHTEKDEVVLVGGVAANNRLREMLRIMTEDRGIKFFVPPYDLCRDNGAMIAYTGLRMYKAGISFRLEETIVKQKFRTDEVEIVW
chain 4: MKPKRVQGKIVIEFPSEDIAEVVYTSVLYEHVSVPYRRSRVNFRREGRRIVLEIEANDSSAMRGTVNSYLRWIKVALDVLNI
stoichiometry N: 2

— PMC9889334 (Nature Communications, 2022)
